Source: patent publication US20200330514A1 (TORQUE THERAPEUTICS, published 2020)

T1: human CD45 receptor on the surface of human T cells (human, UniProt P08575 26-1306)
T1 construct: whole, on cells; also called cellular CD45; leukocyte common antigen
T1 sequence (looked up): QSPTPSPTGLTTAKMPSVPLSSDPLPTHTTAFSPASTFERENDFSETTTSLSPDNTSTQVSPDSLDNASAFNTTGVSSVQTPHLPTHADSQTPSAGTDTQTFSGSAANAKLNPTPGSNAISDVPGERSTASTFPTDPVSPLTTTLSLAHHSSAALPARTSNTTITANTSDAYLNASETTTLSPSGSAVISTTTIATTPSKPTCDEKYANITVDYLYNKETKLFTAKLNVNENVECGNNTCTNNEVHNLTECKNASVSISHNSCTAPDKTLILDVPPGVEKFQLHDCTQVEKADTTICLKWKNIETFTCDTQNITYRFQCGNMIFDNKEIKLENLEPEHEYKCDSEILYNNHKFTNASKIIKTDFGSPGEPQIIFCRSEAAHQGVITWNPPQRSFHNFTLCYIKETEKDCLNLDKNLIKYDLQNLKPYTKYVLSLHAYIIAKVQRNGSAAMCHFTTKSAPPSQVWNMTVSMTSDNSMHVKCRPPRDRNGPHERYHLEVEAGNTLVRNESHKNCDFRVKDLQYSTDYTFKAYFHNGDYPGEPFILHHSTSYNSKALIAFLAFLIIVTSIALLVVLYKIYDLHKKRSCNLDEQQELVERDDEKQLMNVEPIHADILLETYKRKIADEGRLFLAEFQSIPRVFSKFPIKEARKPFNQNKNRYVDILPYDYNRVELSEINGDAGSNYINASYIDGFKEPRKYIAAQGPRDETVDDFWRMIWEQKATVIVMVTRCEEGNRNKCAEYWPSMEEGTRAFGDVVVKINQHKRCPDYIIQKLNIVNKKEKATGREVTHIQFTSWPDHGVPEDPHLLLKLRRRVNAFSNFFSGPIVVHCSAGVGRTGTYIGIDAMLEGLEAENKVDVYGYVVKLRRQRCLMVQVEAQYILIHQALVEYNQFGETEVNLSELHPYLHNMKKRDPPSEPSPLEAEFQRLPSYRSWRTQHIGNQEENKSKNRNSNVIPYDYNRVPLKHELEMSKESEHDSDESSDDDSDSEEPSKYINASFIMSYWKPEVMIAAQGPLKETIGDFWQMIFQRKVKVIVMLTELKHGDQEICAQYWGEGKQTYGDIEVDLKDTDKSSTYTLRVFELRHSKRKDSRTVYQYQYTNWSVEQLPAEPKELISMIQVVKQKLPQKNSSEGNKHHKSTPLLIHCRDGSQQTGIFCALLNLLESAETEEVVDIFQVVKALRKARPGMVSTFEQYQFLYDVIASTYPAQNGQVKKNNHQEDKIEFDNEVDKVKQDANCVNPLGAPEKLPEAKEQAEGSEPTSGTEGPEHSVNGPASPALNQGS

B1: human CD8 on the surface of human CD8 T cells (receptor)
chain 1: not shown
chain 2: LQQTPAYIKVQTNKMVMLSCEAKISLSNMRIYWLRQRQAPSSDSHHEFLALWDSAKGTIHGEEVEQEKIAVFRDASRFILNLTSVKPEDSGIYFCMIVGSPELTFGKGTQLSVVDFLPTTAQPTKKSTLKKRVCRLPRPETQKGPLCSPITLGLLVAGVLVLLVSLGVAIHLCCRRRRARLRFMKQFYK
notes: whole, on cells

Assays:
[1] = target: T1, human CD45 receptor on the surface of …; experiment: pulse incubation of human CD3 T cells, anti-human IgG staining by flow cytometry (FIG. 23)
Method: We evaluated the ability of IL12-TFs to support the loading of IL-12 onto T cells. Briefly, human total CD3 T cells were activated with CD3/CD28 Dynabeads for three days. Beads were removed and cells were incubated with IL-2 for 1 day prior to pulse incubation with h9.4Fab-scIL-12p70 diluted in full medium (RPMI 1640 with 10% FBS). Cells were incubated in biological duplicate with full media (Mock condition) or h9.4Fab-scIL-12p70 for 1 hr at 37° C. and then washed three times will full media (RPMI 1640 with 10% FBS) to remove unbound IL12-TF. Cells were then plated in full medium at a cell density of approximately 200,000 cells/mL and incubated at 37° C., 5% CO2. Surface tethered IL-12 was detected using flow cytometry by immunostaining with a polyclonal anti-human IgG antibody. Cells were counted using CountBright Absolute flow cytometry counting beads. In each case cells were analyzed on a FACSCelesta using Diva Software; data was analyzed using Cytobank.

[2] = target: T1, human CD45 receptor on the surface of …; experiment: apparent KD (KD,app); flow cytometry titration of IgG on activated primary human CD8 T cells, 4-parameter fit
Source text: For comparison with previous results we evaluated these antibodies alongside chBC8, hBC8(23), and a non-binding variant hBC8-null. The humanized BC8 antibody consists of variable domains containing CDR regions grafted from BC8, and the hBC8-null variant contains an SGGGS substitution in the heavy-chain CDR3, which ablates binding to CD45 (FIG. 10A). […] We use the term apparent dissociation constant (K_{D,app}) to distinguish from a true equilibrium dissociation constant: the bivalent nature of the IgG antibody introduces an avidity effect that complicates the calculation of a true equilibrium dissociation constant for these type of assays. Nevertheless, the K_{D,app} is a useful metric for scoring relative affinities of the antibodies to the cellular receptor in its native context.
Cell binding assay. Primary human CD8 T-cells were activated with CD3/CD28 beads and 10 ng/mL IL-2 as described in Example 1. Following activation and an overnight rest in full RPMI media (see Example 1 methods) the T-cells were incubated with seven serial five-fold dilutions of antibodies spanning 500 nM to 6.4 μM, or with media only control at 4° C. for 1 hr. Cells were washed with MACS buffer (PBS, 2% FBS, 1 mM EDTA) three times, and antibody binding was detected using a PE-conjugated anti-human IgG-Fc antibody (BioLegend, cat. no. HP6017) for 20 min. at 4° C. Cells were washed two times with MACS buffer, and the resuspended in MACS buffer with live-dead stain (7-AAD). Antibody binding was quantified using the median fluorescence intensity (MFI) of the live cell population (via 7-AAD exclusion) within the PE signal. Curves were generated by plotting mean fluorescent units against antibody concentration, and apparent dissociation constants (K_{D,app}) were determined by non-linear regression using a four-parameter logistic equation using GraphPad Prism (GraphPad Software, Inc.).

[3] = target: B1; experiment: flow cytometry titration on total CD3 human T cells (FIG. 17D)
[4] = target: T2, chOKT8-IL15/sushi Fab (human, UniProt Q13261 31-95); experiment: as above
T2 construct: Anti-human CD8 Fab IFM; also called chOKT8Fab-IL15/sushi; chOKT8Fab-Il15/sushi
T2 sequence (Q13261 31-95): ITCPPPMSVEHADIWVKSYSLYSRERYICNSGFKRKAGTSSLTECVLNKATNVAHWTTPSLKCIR

Row | Kd [2] | Binder | further results
1 |  | h9.4Fab-scIL-12p70 (other, Anti-human CD45 Fab fused to single-chain human IL-12p70; also called anti-CD45-IL12-TF; IL12-TF) heavy: EVQLVQSGAEVKKPGASVKVSCKASGYTFTSYSIQWVRQAPGQRLEWIGYINPSSGYIKYNQHFRGRATLTADRSASTAYMELSSLRSEDTAVYYCARGNSGSFDYWGQGTLVTVSSASTKGPSVFPLAPSSKSTSGGTAALGCLVKDYFPEPVTVSWNSGALTSGVHTFPAVLQSSGLYSLSSVVTVPSSSLGTQTYICNVNHKPSNTKVDKKVEPKSC light: DIVMTQSPLSLPVTPGEPASISCRSSQSLLHSSGITYLYWFLQKPGQSPQLLIYRMSNLASGVPDRFSGSGSGTDFTLKISRVEAEDVGVYYCMQHLEYPFTFGQGTKLEIKRTVAAPSVFIFPPSDEQLKSGTASVVCLLNNFYPREAKVQWKVDNALQSGNSQESVTEQDSKDSTYSLSSTLTLSKADYEKHKVYACEVTHQGLSSPVTKSFNRGECGGGGSGGGGSGGGGSIWELKKDVYVVELDWYPDAPGEMVVLTCDTPEEDGITWTLDQSSEVLGSGKTLTIQVKEFGDAGQYTCHKGGEVLSHSLLLLHKKEDGIWSTDILKDQKEPKNKTFLRCEAKNYSGRFTCWWLTTISTDLTFSVKSSRGSSDPQGVTCGAATLSAERVRGDNKEYEYSVECQEDSACPAAEESLPIEVMVDAVHKLKYENYTSSFFIRDIIKPDPPKNLQLKPLKNSRQVEVSWEYPDTWSTPHSYFSLTFCVQVQGKSKREKKDRVFTDKTSATVICRKNASISVRAQDRYYSSSWSEWASVPCSGGGSGGGSGGGSGGGSRNLPVATPDPGMFPCLHHSQNLLRAVSNMLQKARQTLEFYPCTSEEIDHEDITKDKTSTVEACLPLELTKNESCLNSRETSFITNGSCLASRKTSFMMALCLSSIYEDLKMYQVEFKTMNAKLLMDPKRQIFLDQNMLAVIDELMQALNFNSETVPQKSSLEEPDFYKTKIKLCILLHAFRIRAVTIDRVMSYLNAS | binding result [1]: binds
2 | 7.8 nM | hBC8(23) humanized BC8 anti-CD45 antibody (IgG form) (antibody, V domains shown, Tested as an antibody detected with anti-human IgG-Fc; its constant regions are not spelled out for the humanized antibody) VH: EVQLVESGGGLVQPGGSLRLSCAASGFDFSRYWMSWVRQAPGKGLEWIGEINPTSSTINFADSVKGRFTISRDNAKNSLYLQMNSVRDEDTAVYYCARGNYYRYGDAMDYWGQGTLVTVSS VL: EIVLTQSPATLSLSLGERATISCRASKSVSTSGYSYLHWYQQKPGQAPKLLIYLASNRATGVPARFSGSGPGTDFTLTISSLEPEDFATYYCQHSRELPFTFGQGTKLEIK | 
3 | 6.68 nM | chBC8 chimeric IgG anti-CD45 antibody (IgG4-S228P) (antibody, V domains shown, also called chBC8 IgG; chimeric BC8) VH: QVQLVESGGGLVQPGGSLKLSCAASGFDFSRYWMSWVRQAPGKGLEWIGEINPTSSTINFTPSLKDKVFISRDNAKNTLYLQMSKVRSEDTALYYCARGNYYRYGDAMDYWGQGTSVTVSS VL: DIVLTQSPASLAVSLGQRATISCRASKSVSTSGYSYLHWYQQKPGQPPKLLIYLASNLESGVPARFSGSGSGTDFTLNIHPVEEEDAATYYCQHSRELPFTFGSGTKLEIKR | 
4 |  | chOKT8Fab (anti-human CD8 clone OKT8 as Fab fragment) (Fab, V domains shown) VH: QVQLQQSGAELVKPGASVKLSCTASGFNIKDTYIHFVRQRPEQGLEWIGRIDPANDNTLYASKFQGKATITADTSSNTAYMHLSSLTSGDTAVYYCGRGYGYYVFDHWGQGTTLTVSS VL: DVQINQSPSFLAASPGETITINCRTSRSISQYLAWYQEKPGKTNKLLIYSGSTLQSGIPSRFSGSGSGTDFTLTISGLEPEDFAMYYCQQHNENPLTFGAGTKLELKR | binding result [3]: binds
5 | 0.84 nM | ch9.4 chimeric IgG anti-CD45 antibody (antibody, V domains shown, Chimeric IgG: mouse variable domains, human constant kappa domain and human IgG4 with S228P) VH: QVQLQQLGAELARPGASVKMSCKASGYTFTSYSIQWVKQRPGQGLEWIGYINPSSGYIKYNQHFRDRATLTADRSSSTAYMQLSSLTSEDSAVYYCARGNSGSFDYWGQGTTLTVSS VL: DIVMTQAAPSVPVTPGESLSISCRSSKSLLHSSGITYLYWFLQRPGQSPQLLIYRMSNLASGVPDRFSGSGSGTAFTLRISRVEAEDVGVYYCMQHLEYPFTFGGGTKLEIK | 
6 |  | B1 | binding result [4]: binds
7 | 0.44 nM | ch4B2 chimeric IgG anti-CD45 antibody (antibody, V domains shown, Chimeric IgG: mouse variable domains, human constant kappa domain and human IgG4 with S228P) VH: QVQLQQSGAELARPGASVKMSCKASGYTFTSYTMQWVKQRPGQGLEWIGYINPSSGYIKYNQKFKDKVTLTADKSSTTAYMQLSRLTSEDSAVYYCARRGSYFFDFWGQGTSVTVSS VL: DIVITQDELSNPVTSGESVSISCRSSKSLLYKDGKTYLNWFLQRPGQSPQLLIYLMSTRASGVSDRFSGSGSGTDFTLEISRVKAEDVGVYYCQQLVEYPFTFGGGTKLEVK | 
